From the supplement of paper PMC9233669
This sample holds only a part of the variants without activity.

Key:
[1] = tested on: biotinyl-Phe-oxazolone; test: self-aminoacylation, catalytic enhancement (BFO) (fold over background); higher = more active; k-Seq, kA / k0A0; sequences stand for … in GGGAAUGGAUCCACAUCUACGAAUUC…UUCACUGCAGACUUGACGAAGCUG
Method in brief: (§1)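 Each biotinyl-aminoacyl-oxazolone, at 2–1250 μM, was incubated with mutagenized RNA pools (0.43 μM) carrying a 21-nt variable region. The 50 μL reactions contained HEPES/NaCl/KCl/MgCl2/CaCl2 buffer with 5% acetonitrile at pH 6.9–7.0 and ran for 90 minutes at room temperature. After streptavidin capture, RNA was measured by qPCR in triplicate and by Illumina sequencing, and catalytic enhancement was calculated as median kA over the uncatalyzed rate from a pseudo-first-order fit of per-sequence fraction reacted.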

[2] = tested on: biotinyl-Ile-oxazolone; test: self-aminoacylation, catalytic enhancement (BIO) (fold over background); higher = more active; k-Seq, kA / k0A0; sequences stand for … in GGGAAUGGAUCCACAUCUACGAAUUC…UUCACUGCAGACUUGACGAAGCUG
Method in brief: as §1

[3] = tested on: biotinyl-Met-oxazolone; test: self-aminoacylation, catalytic enhancement (BMO) (fold over background); higher = more active; k-Seq, kA / k0A0; sequences stand for … in GGGAAUGGAUCCACAUCUACGAAUUC…UUCACUGCAGACUUGACGAAGCUG
Method in brief: as §1

[4] = tested on: biotinyl-Val-oxazolone; test: self-aminoacylation, catalytic enhancement (BVO) (fold over background); higher = more active; k-Seq, kA / k0A0; sequences stand for … in GGGAAUGGAUCCACAUCUACGAAUUC…UUCACUGCAGACUUGACGAAGCUG
Method in brief: as §1

[5] = tested on: biotinyl-Leu-oxazolone; test: self-aminoacylation, catalytic enhancement (BLO) (fold over background); higher = more active; k-Seq, kA / k0A0; sequences stand for … in GGGAAUGGAUCCACAUCUACGAAUUC…UUCACUGCAGACUUGACGAAGCUG
Method in brief: as §1

[6] = tested on: biotinyl-Trp-oxazolone; test: self-aminoacylation, catalytic enhancement (BWO) (fold over background); higher = more active; k-Seq, kA / k0A0; sequences stand for … in GGGAAUGGAUCCACAUCUACGAAUUC…UUCACUGCAGACUUGACGAAGCUG
Method in brief: as §1

Row | Sequence | self-aminoacylation [1] | self-aminoacylation [2] | self-aminoacylation [3] | self-aminoacylation [4] | self-aminoacylation [5] | self-aminoacylation [6]
1 | CUACUUCAAUCAAUCGGUCUU [Fam1A.1 aminoacylation ribozyme variant] | 19.8 | 1.23 | 1.07 | 1.11 | 1.35 | 10.6
2 | CAGUUUGCUAACAGUCGCAAG [Fam3.1 aminoacylation ribozyme variant] | 2 | 1.31 | 1.83 | 1.16 | 1.6 | 1.32
3 | CUAAUUCUAACAAUCGGUCUG [Fam1A.1 aminoacylation ribozyme variant] | 0.731 | 0.751 | 0.652 | 0.714 | 0.624 | 0.474
4 | AUUACCUUGGUCAUCGGGUGA [Fam2.1 aminoacylation ribozyme variant] | 53.3 | 5.69 | 9.54 | 6.05 | 10.6 | 10.8
5 | GUUGCCCUGGUCAUCGAGUGA [Fam2.1 aminoacylation ribozyme variant] | 382 | 19.1 | 54.2 | 23.4 | 57.5 | 58.8
6 | CCACACUUCGGGCAAUCGGUC [Fam1B.1 aminoacylation ribozyme variant] | 9.3 | 2.1 | 2.73 | 3.09 | 2.48 | 2.23
7 | AUUACCCUGGUCAUCGAGCGG [Fam2.1 aminoacylation ribozyme variant] | 1.12 | 1.95 | 2.38 | 1.8 | 2.9 | 1.61
8 | AUUCACGUAGGUCAUCGGGUG [Fam2.2 aminoacylation ribozyme variant] | 53.2 | 4.22 | 6.62 | 5.15 | 7.22 | 6.49
9 | CUAUUUCAAACAAUCGGUCUA [Fam1A.1 aminoacylation ribozyme variant] | 2.12 | 0.713 | 0.634 | 0.588 | 0.571 | 1.15
10 | AAGUUUCCUAAUACUCGCAAG [Fam3.1 aminoacylation ribozyme variant] | 0.584 | 0.862 | 1 | 0.889 | 0.891 | 0.555
11 | AUUCACCUAGUUCAUCGAGUG [Fam2.2 aminoacylation ribozyme variant] | 1.17 | 0.949 | 1.21 | 1.04 | 1.31 | 1.25
12 | UUUACCCUGGUCAUUGAGUGA [Fam2.1 aminoacylation ribozyme variant] | 38.1 | 3.76 | 7.86 | 3.91 | 7.06 | 10.1
13 | CUCCUUCAAACAAUCGGUCGG [Fam1A.1 aminoacylation ribozyme variant] | 62.4 | 1.32 | 1.96 | 1.33 | 2.14 | 24.2
14 | AAGUUUGCUAAUAGUCGGAAU [Fam3.1 aminoacylation ribozyme variant] | 1.54 | 1.37 | 1.5 | 1.41 | 1.41 | 1.18
15 | AUUACCCUGGGCAUUGAGUGA [Fam2.1 aminoacylation ribozyme variant] | 58.7 | 4.38 | 9.32 | 4.23 | 11.3 | 11.9
16 | AUUACUCUGGUCUUCGAGUGA [Fam2.1 aminoacylation ribozyme variant] | 21.2 | 3.13 | 5.11 | 2.85 | 5.04 | 7.1
17 | CUACUUCAAACAUUCGGUAUG [Fam1A.1 aminoacylation ribozyme variant] | 0.64 | 0.968 | 0.993 | 1.12 | 1.05 | 0.924
18 | AUUAUCUUGGUCAUCGAGUGA [Fam2.1 aminoacylation ribozyme variant] | 12.4 | 3.54 | 5.16 | 3.11 | 5.73 | 6.57
19 | AUUCACCGAUGUCAUCGGGUG [Fam2.2 aminoacylation ribozyme variant] | 62.7 | 5.59 | 8.67 | 4.63 | 10.8 | 7.35
20 | CUAUUUCAAAUAAUCGGUCUG [Fam1A.1 aminoacylation ribozyme variant] | 3.5 | 0.912 | 0.849 | 0.816 | 0.814 | 2.2
21 | CUACGUCAAACAAUGGGUCUG [Fam1A.1 aminoacylation ribozyme variant] | 2.25 | 1.38 | 1.22 | 1.35 | 1.62 | 1.18
22 | CUUACCCUGGUCAUCGAUUGA [Fam2.1 aminoacylation ribozyme variant] | 0.863 | 0.751 | 0.863 | 0.929 | 0.839 | 1.34
23 | AUUACCUUGGUCAGCGAGUGA [Fam2.1 aminoacylation ribozyme variant] | 21.5 | 3.26 | 5.05 | 3.08 | 5.38 | 6.84
24 | CCACAAUUCAAGCAAUCGGAC [Fam1B.1 aminoacylation ribozyme variant] | 0.942 | 1.15 | 0.783 | 0.798 | 0.884 | 0.711
25 | AUUACCUUGAUCAUCGAGUGA [Fam2.1 aminoacylation ribozyme variant] | 37.6 | 3.94 | 8.63 | 4.44 | 8.21 | 10.7
26 | AUUAGCCUGGUCAUCGGGUGA [Fam2.1 aminoacylation ribozyme variant] | 94.3 | 6.74 | 10.1 | 7.06 | 13.3 | 13.4

Row | Sequence | self-aminoacylation [1] | self-aminoacylation [2] | self-aminoacylation [3] | self-aminoacylation [4] | self-aminoacylation [5] | self-aminoacylation [6]
27 | AUUCCCCUGGUCGUCGAGUGA [Fam2.1 aminoacylation ribozyme variant] | 6.18 | 1.48 | 1.42 | 1.33 | 1.71 | 1.52
28 | AAGGUUUCUAAUAGUCGCAAG [Fam3.1 aminoacylation ribozyme variant] | 2.65 | 1.64 | 1.04 | 1.53 | 1.05 | 1.6
29 | AUUACACCGGUCAUCGAGUGA [Fam2.1 aminoacylation ribozyme variant] | 29.4 | 2.95 | 5.76 | 2.96 | 6.36 | 5.95
30 | AUUCACCUACGUCAUUGGGUG [Fam2.2 aminoacylation ribozyme variant] | 10.9 | 1.5 | 1.97 | 1.51 | 2.47 | 1.51
31 | GUACUUCAAACAAGCGGUCUG [Fam1A.1 aminoacylation ribozyme variant] | 5.04 | 1.78 | 1.42 | 1.49 | 1.63 | 2.06
32 | AUGACCGUGGUCAUCGAGUGA [Fam2.1 aminoacylation ribozyme variant] | 39.7 | 3.34 | 6.71 | 3.22 | 7.27 | 7.37
33 | CUACUUCAAACAAGUGGUCUG [Fam1A.1 aminoacylation ribozyme variant] | 0.734 | 0.968 | 0.7 | 0.919 | 0.885 | 0.516
34 | CUUCAUCUAGGUCAUCGGGUG [Fam2.2 aminoacylation ribozyme variant] | 38.8 | 4.55 | 6.52 | 4.7 | 7.99 | 5.49
35 | UUUCGCCUAGGUCAUCGGGUG [Fam2.2 aminoacylation ribozyme variant] | 44.1 | 5.36 | 6.25 | 5.33 | 7.49 | 7.75
36 | AAGUUUCCUAAUAGUCGAAAG [Fam3.1 aminoacylation ribozyme variant] | 2.75 | 1.45 | 1.1 | 1.14 | 1.44 | 1.76
37 | CUACUUCCAACAAUCGGUCAG [Fam1A.1 aminoacylation ribozyme variant] | 1.04 | 0.795 | 0.62 | 0.774 | 0.663 | 0.518
38 | CUACUUUCAACAAUCGGUCUG [Fam1A.1 aminoacylation ribozyme variant] | 14.5 | 0.99 | 0.895 | 1.06 | 1.09 | 10.3
39 | UUUAACCUGGUCAUCGAGUGA [Fam2.1 aminoacylation ribozyme variant] | 11.2 | 4.01 | 5.83 | 4.17 | 5.8 | 8.93
40 | AUAAACCUAGGUCAUCGGGUG [Fam2.2 aminoacylation ribozyme variant] | 20.4 | 2.57 | 3.29 | 2.43 | 4.39 | 3.73
41 | AUUACCCUGGCCAUCGAGUGU [Fam2.1 aminoacylation ribozyme variant] | 2.1 | 1.42 | 3.06 | 1.93 | 2.04 | 2.51
42 | AGUCACUUAGGUCAUCGGGUG [Fam2.2 aminoacylation ribozyme variant] | 46.1 | 4.65 | 5.12 | 4.36 | 6.96 | 5.93
43 | CUACUUGAAACAAACGGUCUG [Fam1A.1 aminoacylation ribozyme variant] | 0.858 | 1.02 | 1.05 | 0.985 | 0.826 | 1.03
44 | AUUACCCUGGCCACCGAGUGA [Fam2.1 aminoacylation ribozyme variant] | 35.6 | 2.92 | 4.99 | 3.34 | 5.59 | 3.89
45 | AUUAUUCUGGUCAUCGAGUGA [Fam2.1 aminoacylation ribozyme variant] | 22.9 | 3.4 | 5.31 | 3.12 | 6.25 | 7.13
46 | AUUCACAUAGGUCAUCGGCUG [Fam2.2 aminoacylation ribozyme variant] | 7.68 | 1.72 | 1.64 | 1.78 | 1.61 | 1.89
47 | ACUACCCUGGUCAUCGGGUGA [Fam2.1 aminoacylation ribozyme variant] | 293 | 20.6 | 48 | 20.9 | 50.1 | 57.6
48 | AUUACCCUGAUAAUCGAGUGA [Fam2.1 aminoacylation ribozyme variant] | 39.8 | 4.12 | 9.64 | 4.59 | 10.3 | 11.1
49 | CCACACUACAAGCAAUCGGUG [Fam1B.1 aminoacylation ribozyme variant] | 31.8 | 3.62 | 4.92 | 2.85 | 6.9 | 5.03
50 | AUUACCGUGGUCAUCGACUGA [Fam2.1 aminoacylation ribozyme variant] | 0.518 | 1.06 | 0.911 | 1.11 | 0.742 | 0.507
51 | AUUACCCUUGUCAUCGAGUCA [Fam2.1 aminoacylation ribozyme variant] | 0.6 | 0.895 | 0.756 | 0.841 | 0.708 | 0.591
